According to patent US20110009319A1 (RESEARCH DEVELOPMENT FOUNDATION, published 2011):

B1: Cripto DEGF mutant (receptor)
chain: FEFGPVAGRDLAIRDNSIWDQKEPAVRDRSFQFVPSVGIQNSKEHCGSILHGTWLPKKCSLCRCWHGQLHCLPQTFLPGCD
modifications: C-terminal GPI anchor
B2: Cripto EGF1•2mCFC mutant (N69G, T72A, R88G, E91G, H104G, W107G) (receptor)
chain: FEFGPVAGRDLAIRDNSIWDQKEPAVRDRSFQFVPSVGIQNSKSLNKTCCLGGGACILGSFCACPPSFYGGNCGHDVRKEHCGSILGGTGLPKKCSLCRCWHGQLHCLPQTFLPGCD
modifications: C-terminal GPI anchor

Experiments:
activin-A [1] = molecular target: T1, activin-A (UniProt P08476 311-426, [125I] label in the crosslinking assays (site not stated)); test: activin crosslinking assays
T1 construct: The ~14 kDa monomer implies the processed mature chain; Unlabelled protein was used in the luciferase assays; also called bA-bA
T1 sequence (looked up): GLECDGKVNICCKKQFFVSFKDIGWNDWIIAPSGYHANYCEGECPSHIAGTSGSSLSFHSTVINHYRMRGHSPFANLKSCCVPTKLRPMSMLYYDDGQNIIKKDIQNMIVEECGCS
Protocol: Cells were transfected with […] DNA per well with ratios of 0.5 mg TbRII/0.5 mg ALK5/3 mg Cripto unless otherwise indicated for [¹²⁵I]-TGF-b1 crosslinking or […] ActRII/1 mg Cripto/1 mg vector for [¹²⁵I]activin-A crosslinking. As necessary, empty vector was used to keep the amount of DNA transfected constant at […]. […] Cells were then rinsed in HDB, incubated in HDB containing 0.5 mM disuccinylsuberate (DSS) for 30 min on ice, rinsed in HDB and then solubilized in lysis buffer (TBS containing 1% NP-40, 0.5% deoxycholate and 2 mM EDTA) for 1 h on ice. Solubilized, crosslinked complexes were incubated for approximately 24 h at 4° C. with […] of either anti-FLAG (M2), anti-His or anti-myc antibodies. Immune complexes were precipitated using protein-G agarose and analyzed using SDS-PAGE and autoradiography.

activin-A [2] = molecular target: T1, activin-A; test: not described at this place

Binder | binding result (activin-A [1]) | binding result (activin-A [2])
B1 | no binding | –
B2 | – | no binding
